Target: T1, MBP-BIN2 (Arabidopsis thaliana, UniProt Q39011 1-380)
T1 construct: also called BIN2-MBP; source: E. coli strain Transetta-DE3, purified
T1 sequence (looked up): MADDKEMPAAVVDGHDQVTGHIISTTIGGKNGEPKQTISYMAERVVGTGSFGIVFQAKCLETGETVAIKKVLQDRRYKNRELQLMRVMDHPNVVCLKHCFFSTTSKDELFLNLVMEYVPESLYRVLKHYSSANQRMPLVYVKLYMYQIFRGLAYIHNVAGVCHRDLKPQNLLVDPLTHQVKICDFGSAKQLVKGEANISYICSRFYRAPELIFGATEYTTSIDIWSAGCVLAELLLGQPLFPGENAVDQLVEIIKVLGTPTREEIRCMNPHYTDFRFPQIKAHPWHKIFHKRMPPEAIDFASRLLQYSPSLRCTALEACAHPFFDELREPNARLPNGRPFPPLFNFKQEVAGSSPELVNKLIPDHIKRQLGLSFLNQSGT
Assay: pull-down; MBP pull-down on amylose resin; purified GST-CO incubated with MBP or MBP-BIN2 overnight at 4°C; 20 mM Tris pH 8.0, NaCl, 1 mM EDTA; immunoblot with anti-MBP and anti-GST
Conditions: both partners purified

B1: GST-CO (natural protein, Arabidopsis thaliana, UniProt Q39057 1-373, looked up)
chain: MLKQESNDIGSGENNRARPCDTCRSNACTVYCHADSAYLCMSCDAQVHSANRVASRHKRVRVCESCERAPAAFLCEADDASLCTACDSEVHSANPLARRHQRVPILPISGNSFSSMTTTHHQSEKTMTDPEKRLVVDQEEGEEGDKDAKEVASWLFPNSDKNNNNQNNGLLFSDEYLNLVDYNSSMDYKFTGEYSQHQQNCSVPQTSYGGDRVVPLKLEESRGHQCHNQQNFQFNIKYGSSGTHYNDNGSINHNAYISSMETGVVPESTACVTTASHPRTPKGTVEQQPDPASQMITVTQLSPMDREARVLRYREKRKTRKFEKTIRYASRKAYAEIRPRVNGRFAKREIEAEEQGFNTMLMYNTGYGIVPSF
notes: also called CO-GST; source: E. coli strain Transetta-DE3, purified
- binding result: binds

Source: PMC9923014, “BIN2 phosphorylates the Thr280 of CO to restrict its function in promoting Arabidopsis flowering” (Frontiers in Plant Science, 2023)
